{"source": "patent US20200171068A1", "about": "“COMPOSITIONS COMPRISING APTAMERS AND NUCLEIC ACID PAYLOADS AND METHODS OF USING THE SAME” (Children's National Medical Center, priority 2017, published 2020)", "molecules": {"B1": {"name": "human KIT aptamer: DNA aptamer against human KIT, SEQ ID NO:2, conjugated with biotin at 3′ for binding assay (nucleic acid)", "DNA": "GAGGCATACCAGCTTATTCAAGGGGCCGGGGCAAGGGGGGGGTACCGTGGTAGGACATAGTAAGTGCAATCTGCGAA", "modifications": "DNA, 3' {Biotin}, backbone not given here; further chemistry not fully specified"}}, "system": "MDA-MB-231 cell line", "assay": "Aptamer binding assay to MDA-MB-231 cells by flow cytometry", "design": "species or system human", "conditions": "biotin-conjugated aptamer", "procedure": "DNA sequences for anti-human KIT aptamer (21) and mouse c-Kit aptamers (22) conjugated with biotin at 3′ were functionalized by short denaturation-renaturation step (95° C. 10 min, 5 min snap-cooling on ice). These DNA sequences were 5′-[…] […]-3′ (SEQ ID NO: 2) for human KIT, 5′-[…]-3′ (SEQ ID NO:3) for mouse c-Kit. These activated aptamers were used for binding assay to the cell lines by flow cytometry. For chimera preparation, human KIT-aptamer or mouse c-Kit-aptamer miR-26a chimera was assembled by three compartments of DNA/RNA hybrid sequences. The sequences were 5′-[…] […]/C3 (SEQ ID NO:4) spacer/CCUAUUCUGG-3′(SEQ ID NO:5) for human KIT aptamer+the part of passenger sequence for miR-26a-5p, 5′-[…]/C3 (SEQ ID NO:6) spacer/CCUAUUCUGG-3′ (SEQ ID NO:7) for mouse cKit aptamer+the part of passenger sequence for miR-26a-5p, 5′-GUUACUUGCACG/TEG (triethylene glycol)-Cholesterol-3′ (SEQ ID NO:8) for the part of sequence for miR-26a-5p+cholesterol, and 5′-[…]-3′ (SEQ ID NO:9) for guide sequence for miR-26a-5p (RNA sequences were represented as italic). The guide sequence for scramble control was […] (SEQ ID NO:10). To protect the oligonucleotide sequences from nuclease degradation, phosphorothioate bonds were introduced between the last 3 nucleotides at the 5′-end of DNA aptamers. The RNA sequences were modified with 2′-fluoro-uridines. […]", "note": "“Also recorded” adds a separate entry of the source."}
{"molecule": "B1", "values": [{"measurement": "binding to MDA-MB-231 cell line", "value": "confirmed the binding; also recorded: nearly identical distribution of KIT expression"}]}
